Source: the supplement of paper PMC9112550, “Optimization of the antimicrobial peptide Bac7 by deep mutational scanning” (BMC Biology, 2022)

Tested on: Escherichia coli TOP10
Assay: shrunken log2 fold change of peptide-encoding DNA abundance (4.5 h post-induction vs induction); higher = less antimicrobial activity (less host growth inhibition)
Settings: time post-induction: 4.5 h; library: site-saturation at positions 5, 18, 19, 20
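Note: peptides expressed intracellularly from a pBAD plasmid library in pooled LB shake-flask culture, induced with 0.3% L-arabinose, DNA abundance read by NGS, three biological replicates, DESeq2 with apeglm shrinkage.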

Sequence | shrunken log2 fold change
RRIRMRPPRLPRPRPRPRALPRP | 2.22
RRIRDRPPRLPRPRPRPDCIPRP | 0.438
RRIRRRPPRLPRPRPRPPFIPRP | 0.299
RRIRQRPPRLPRPRPRPFPQPRP | -0.0621
RRIRKRPPRLPRPRPRPVMRPRP | 0.74
RRIRERPPRLPRPRPRPENKPRP | -0.697
RRIRTRPPRLPRPRPRPAKTPRP | 0.117
RRIRQRPPRLPRPRPRPVSMPRP | -0.181
RRIRPRPPRLPRPRPRPTSSPRP | 0.0475
RRIRTRPPRLPRPRPRPSFKPRP | -0.465
RRIRMRPPRLPRPRPRPKHIPRP | -0.0498
RRIRERPPRLPRPRPRPETAPRP | 0.0892
RRIRPRPPRLPRPRPRPTTYPRP | -0.141
RRIRPRPPRLPRPRPRPNFRPRP | 0.156
RRIRFRPPRLPRPRPRPGMWPRP | 0.231
RRIRERPPRLPRPRPRPINVPRP | 0.017
RRIRCRPPRLPRPRPRPTTHPRP | -0.0573
RRIRNRPPRLPRPRPRPHWYPRP | -0.0582
RRIRRRPPRLPRPRPRPVNRPRP | -0.0157
RRIRRRPPRLPRPRPRPGALPRP | 0.502
RRIRDRPPRLPRPRPRPENQPRP | 0.351
RRIRGRPPRLPRPRPRPCDVPRP | -0.014
RRIRKRPPRLPRPRPRPNKQPRP | -0.0316
RRIRERPPRLPRPRPRPHNLPRP | -0.47
RRIRPRPPRLPRPRPRPWQIPRP | 0.452

Sequence | shrunken log2 fold change
RRIRERPPRLPRPRPRPTLNPRP | -0.152
RRIRMRPPRLPRPRPRPQHPPRP | -0.0395
RRIRQRPPRLPRPRPRPMPAPRP | 0.178
RRIRQRPPRLPRPRPRPRYWPRP | -0.0336
RRIRRRPPRLPRPRPRPPRGPRP | 0.911
RRIRNRPPRLPRPRPRPRCEPRP | 0.357
RRIRMRPPRLPRPRPRPYSAPRP | 0.0186
RRIRMRPPRLPRPRPRPGWTPRP | 0.185
RRIRSRPPRLPRPRPRPSISPRP | -0.584
RRIRFRPPRLPRPRPRPRVRPRP | 0.0771
RRIRYRPPRLPRPRPRPDLYPRP | -0.0604
RRIRDRPPRLPRPRPRPHAAPRP | 0.458
RRIRDRPPRLPRPRPRPAEPPRP | 0.288
RRIRGRPPRLPRPRPRPMRWPRP | 0.844
RRIRCRPPRLPRPRPRPKWIPRP | -0.366
RRIRHRPPRLPRPRPRPNYGPRP | -0.0744
RRIRKRPPRLPRPRPRPPQFPRP | 0.127
RRIRYRPPRLPRPRPRPNVTPRP | -0.573
RRIRGRPPRLPRPRPRPRERPRP | 0.789
RRIRERPPRLPRPRPRPWDWPRP | 0.0223
RRIRARPPRLPRPRPRPRNHPRP | 0.0958
RRIRKRPPRLPRPRPRPLFSPRP | -0.0137
RRIRTRPPRLPRPRPRPVAFPRP | -0.225
RRIRKRPPRLPRPRPRPCGLPRP | 0.933
RRIRLRPPRLPRPRPRPMRDPRP | 0.336

Sequence | shrunken log2 fold change
RRIRHRPPRLPRPRPRPIQVPRP | 0.000744
RRIRERPPRLPRPRPRPVFPPRP | 0.242
RRIRMRPPRLPRPRPRPCHVPRP | -0.0132
RRIRARPPRLPRPRPRPRCRPRP | 0.427
RRIRTRPPRLPRPRPRPCDFPRP | 0.042
RRIRYRPPRLPRPRPRPSIRPRP | -0.116
RRIRLRPPRLPRPRPRPESNPRP | 0.0589
RRIRWRPPRLPRPRPRPRSCPRP | 0.083
RRIRSRPPRLPRPRPRPGDPPRP | 0.353
RRIRERPPRLPRPRPRPHEDPRP | 0.111
RRIRDRPPRLPRPRPRPLPTPRP | 0.358
RRIRNRPPRLPRPRPRPAYPPRP | 0.0183
RRIRVRPPRLPRPRPRPEHVPRP | 0.0447
RRIRHRPPRLPRPRPRPQNFPRP | -0.522
RRIRDRPPRLPRPRPRPRPLPRP | 0.39
RRIRKRPPRLPRPRPRPGQMPRP | 0.00812
RRIRHRPPRLPRPRPRPVVIPRP | -0.759
RRIRCRPPRLPRPRPRPIPKPRP | 0.326
RRIRLRPPRLPRPRPRPHHWPRP | -0.124
RRIRMRPPRLPRPRPRPYFRPRP | -0.575
RRIRCRPPRLPRPRPRPANWPRP | 0.938
RRIRSRPPRLPRPRPRPSHHPRP | -0.515
RRIRKRPPRLPRPRPRPNIQPRP | -0.0271
RRIRPRPPRLPRPRPRPDHIPRP | -0.0312
RRIRARPPRLPRPRPRPNIRPRP | -0.289

Sequence | shrunken log2 fold change
RRIRTRPPRLPRPRPRPNQEPRP | 0.0313
RRIRSRPPRLPRPRPRPQDDPRP | -0.351
RRIRNRPPRLPRPRPRPTGFPRP | -0.0139
RRIRFRPPRLPRPRPRPNANPRP | -0.0822
RRIRWRPPRLPRPRPRPVWAPRP | 0.263
RRIRYRPPRLPRPRPRPRYCPRP | -0.495
RRIRVRPPRLPRPRPRPWERPRP | 0.153
RRIRKRPPRLPRPRPRPSLGPRP | 0.343
RRIRYRPPRLPRPRPRPGPFPRP | -0.189
RRIRHRPPRLPRPRPRPMVSPRP | -0.00841
RRIRYRPPRLPRPRPRPNYPPRP | -0.79
RRIRVRPPRLPRPRPRPDGNPRP | -0.189
RRIRERPPRLPRPRPRPESRPRP | -0.0773
RRIRWRPPRLPRPRPRPDMNPRP | 0.143
RRIRMRPPRLPRPRPRPIRSPRP | -0.0819
RRIRTRPPRLPRPRPRPTADPRP | 0.351
RRIRCRPPRLPRPRPRPIAFPRP | -0.195
RRIRGRPPRLPRPRPRPMHRPRP | 0.405
RRIRSRPPRLPRPRPRPFLNPRP | -1.03
RRIRQRPPRLPRPRPRPRNHPRP | -0.137
RRIRSRPPRLPRPRPRPGVDPRP | 0.334
RRIRFRPPRLPRPRPRPEGKPRP | 0.143
RRIRFRPPRLPRPRPRPHSFPRP | 0.00365
RRIRFRPPRLPRPRPRPSIVPRP | -0.663
RRIRDRPPRLPRPRPRPKRYPRP | -0.236

Sequence | shrunken log2 fold change
RRIRPRPPRLPRPRPRPTMFPRP | -0.164
RRIRNRPPRLPRPRPRPWRQPRP | -0.0337
RRIRGRPPRLPRPRPRPCERPRP | 0.013
RRIRARPPRLPRPRPRPHRRPRP | 0.212
RRIRLRPPRLPRPRPRPIIRPRP | -0.19
RRIRWRPPRLPRPRPRPQEVPRP | -0.0144
RRIRERPPRLPRPRPRPNFLPRP | -0.114
RRIRNRPPRLPRPRPRPYHKPRP | -2.76
RRIRLRPPRLPRPRPRPYIIPRP | -0.217
RRIRGRPPRLPRPRPRPCKPPRP | 0.108
RRIRIRPPRLPRPRPRPTFDPRP | -0.188
RRIRMRPPRLPRPRPRPDYKPRP | 0.248
RRIRCRPPRLPRPRPRPEYYPRP | -0.159
RRIRHRPPRLPRPRPRPDAYPRP | 0.027
RRIRMRPPRLPRPRPRPFTMPRP | -0.55
RRIRERPPRLPRPRPRPCVMPRP | -0.41
RRIRDRPPRLPRPRPRPVWSPRP | 0.065
RRIRVRPPRLPRPRPRPPVPPRP | 0.35
RRIRGRPPRLPRPRPRPYYWPRP | -0.25
RRIRNRPPRLPRPRPRPTIKPRP | -0.496
RRIRDRPPRLPRPRPRPRMPPRP | 0.156
RRIRHRPPRLPRPRPRPIFQPRP | 0.153
RRIRPRPPRLPRPRPRPFKTPRP | -0.199
RRIRRRPPRLPRPRPRPTNEPRP | 0.0166
RRIRYRPPRLPRPRPRPQVMPRP | -0.0105
